The source of these data is patent US20240010721A1.

Assay [1] addresses human ROR1 (hROR1) on cells (human) (UniProt Q01973). The assay can be described thus: FACS, HEK293T-hROR1 cells; isotype control. (In flow cytometry, cells or beads pass a laser one at a time.)
Assay [2] concerns the target cynomolgus ROR1 (cynoROR1) on CHO-K1 cells (cynomolgus). Put plainly: FACS, CHO-K1-cynoROR1 cells; isotype control.
Assay [3] concerns the target hROR2ECD-his (human) (UniProt Q01974). Put plainly: ELISA, plate coated with hROR2 ECD-his; isotype control.
Assay [4] addresses human ROR1 (hROR1) on cells (human) (UniProt Q01973). The assay can be described thus: FACS, A549 cells; isotype control.
Assay [5] shares this target. Put plainly: cell-based or functional assay.
The target in assay [6] is Human ROR1-ECD-his (human) (UniProt Q01973). The assay can be described thus: ELISA, plate coated with hROR1 ECD-his; isotype control. (An ELISA detects its analyte on a solid surface through an enzyme-linked reagent.)
Sequence of Human ROR1-ECD-his (human) (Q01973 30-406): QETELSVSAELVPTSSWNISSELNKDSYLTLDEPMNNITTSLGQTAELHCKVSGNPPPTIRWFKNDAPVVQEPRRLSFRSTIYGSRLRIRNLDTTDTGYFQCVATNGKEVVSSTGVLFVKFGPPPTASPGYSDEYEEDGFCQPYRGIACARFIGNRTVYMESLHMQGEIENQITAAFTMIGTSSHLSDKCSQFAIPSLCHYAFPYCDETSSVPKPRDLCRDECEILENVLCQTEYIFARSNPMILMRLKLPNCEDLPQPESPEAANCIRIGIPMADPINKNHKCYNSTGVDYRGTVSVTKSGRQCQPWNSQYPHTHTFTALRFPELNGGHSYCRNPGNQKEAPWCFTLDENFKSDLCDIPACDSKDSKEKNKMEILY

“And” between values parts separate entries of the source, which are not always exact repeats. Equal values may be shown once.

Sequence of human ROR1 (hROR1) on cells (human) (Q01973 30-937): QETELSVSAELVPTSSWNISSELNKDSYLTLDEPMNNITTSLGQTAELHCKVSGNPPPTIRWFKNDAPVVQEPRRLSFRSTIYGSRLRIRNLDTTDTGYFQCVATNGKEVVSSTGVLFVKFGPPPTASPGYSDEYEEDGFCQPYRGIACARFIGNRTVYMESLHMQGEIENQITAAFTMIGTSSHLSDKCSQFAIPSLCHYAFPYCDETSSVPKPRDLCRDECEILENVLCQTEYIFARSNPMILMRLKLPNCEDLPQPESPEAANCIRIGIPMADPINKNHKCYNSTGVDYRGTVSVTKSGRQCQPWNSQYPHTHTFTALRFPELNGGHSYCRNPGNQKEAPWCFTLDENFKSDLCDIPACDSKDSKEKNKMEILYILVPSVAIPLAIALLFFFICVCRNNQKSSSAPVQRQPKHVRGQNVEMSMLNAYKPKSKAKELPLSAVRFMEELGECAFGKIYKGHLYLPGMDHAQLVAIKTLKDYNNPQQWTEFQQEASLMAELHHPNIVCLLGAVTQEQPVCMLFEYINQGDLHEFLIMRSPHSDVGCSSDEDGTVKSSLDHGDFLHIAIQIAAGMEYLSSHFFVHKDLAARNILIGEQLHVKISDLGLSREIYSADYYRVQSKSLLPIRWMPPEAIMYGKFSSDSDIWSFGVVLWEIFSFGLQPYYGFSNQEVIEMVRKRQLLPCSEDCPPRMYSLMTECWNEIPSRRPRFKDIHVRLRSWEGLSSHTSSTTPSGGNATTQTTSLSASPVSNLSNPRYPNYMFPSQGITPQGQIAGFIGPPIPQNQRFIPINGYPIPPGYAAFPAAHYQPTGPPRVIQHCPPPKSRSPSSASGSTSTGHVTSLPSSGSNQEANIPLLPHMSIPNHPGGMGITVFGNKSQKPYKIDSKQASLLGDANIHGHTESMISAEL
Sequence of hROR2ECD-his (human) (Q01974 34-403): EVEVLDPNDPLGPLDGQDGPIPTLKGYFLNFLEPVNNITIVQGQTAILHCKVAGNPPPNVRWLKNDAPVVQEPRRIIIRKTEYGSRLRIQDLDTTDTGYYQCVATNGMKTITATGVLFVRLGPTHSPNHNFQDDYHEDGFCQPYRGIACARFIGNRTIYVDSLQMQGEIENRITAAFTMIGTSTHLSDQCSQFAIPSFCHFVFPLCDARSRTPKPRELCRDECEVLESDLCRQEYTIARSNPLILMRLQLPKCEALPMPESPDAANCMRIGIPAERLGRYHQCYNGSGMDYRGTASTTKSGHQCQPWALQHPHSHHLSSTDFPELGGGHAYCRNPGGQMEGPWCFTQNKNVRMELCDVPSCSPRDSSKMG

Regarding “human Iso IgG1 (CrownBio, Cat#: C0001-4) (antibody)”, in assay [1], the MAX(MFI) amounted to 226 MFI. The substance further had an MAX(MFI) in assay [2] of 140 MFI. In assay [3], this substance showed an ELISA signal (called MFI) of 0.041. The MAX(MFI) in assay [4] came out at 119 MFI. In assay [5], this substance came in with an ADCC Cytotoxicity (%), Donor 1, 1 nM (negative control) of 9.89%; an ADCC Cytotoxicity (%), Donor 1, 10 nM (negative control) of 10.4%; an ADCC Cytotoxicity (%), Donor 2, 1 nM (negative control) of 10.8%; an ADCC Cytotoxicity (%), Donor 2, 10 nM (negative control) of 10.5%. Moreover, in assay [5], the ADCP, percentage of double-stained cells, 0.1 nM (control) was 6.79% and 5.59%; the ADCP, percentage of double-stained cells, 10 nM (control) was 6.53% and 7.46%. Also, in assay [6], the ELISA signal (called MFI) was 0.036.
